Assay [1] deals with HA-tagged PEAK3 Y24 mutant (SH2 binding motif mutant; DKO MCF-10A cells) (UniProt Q6ZS72). Put plainly: co-IP.
Assay [2] addresses HA-tagged PEAK3 SH3(1) mutant (DKO MCF-10A cells) (UniProt Q6ZS72). Put plainly: co-IP.

CrkII (MCF-10A cells), sequence (P46108 whole entry): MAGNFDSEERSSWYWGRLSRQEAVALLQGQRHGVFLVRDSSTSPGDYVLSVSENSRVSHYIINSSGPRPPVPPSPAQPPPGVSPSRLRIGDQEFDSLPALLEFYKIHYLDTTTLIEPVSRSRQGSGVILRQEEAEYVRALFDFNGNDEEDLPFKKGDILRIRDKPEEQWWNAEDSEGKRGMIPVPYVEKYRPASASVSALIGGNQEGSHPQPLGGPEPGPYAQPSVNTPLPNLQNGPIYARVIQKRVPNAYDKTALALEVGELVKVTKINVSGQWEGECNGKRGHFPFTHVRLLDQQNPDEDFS
PYK2 (MCF-10A cells), sequence (Q14289 whole entry): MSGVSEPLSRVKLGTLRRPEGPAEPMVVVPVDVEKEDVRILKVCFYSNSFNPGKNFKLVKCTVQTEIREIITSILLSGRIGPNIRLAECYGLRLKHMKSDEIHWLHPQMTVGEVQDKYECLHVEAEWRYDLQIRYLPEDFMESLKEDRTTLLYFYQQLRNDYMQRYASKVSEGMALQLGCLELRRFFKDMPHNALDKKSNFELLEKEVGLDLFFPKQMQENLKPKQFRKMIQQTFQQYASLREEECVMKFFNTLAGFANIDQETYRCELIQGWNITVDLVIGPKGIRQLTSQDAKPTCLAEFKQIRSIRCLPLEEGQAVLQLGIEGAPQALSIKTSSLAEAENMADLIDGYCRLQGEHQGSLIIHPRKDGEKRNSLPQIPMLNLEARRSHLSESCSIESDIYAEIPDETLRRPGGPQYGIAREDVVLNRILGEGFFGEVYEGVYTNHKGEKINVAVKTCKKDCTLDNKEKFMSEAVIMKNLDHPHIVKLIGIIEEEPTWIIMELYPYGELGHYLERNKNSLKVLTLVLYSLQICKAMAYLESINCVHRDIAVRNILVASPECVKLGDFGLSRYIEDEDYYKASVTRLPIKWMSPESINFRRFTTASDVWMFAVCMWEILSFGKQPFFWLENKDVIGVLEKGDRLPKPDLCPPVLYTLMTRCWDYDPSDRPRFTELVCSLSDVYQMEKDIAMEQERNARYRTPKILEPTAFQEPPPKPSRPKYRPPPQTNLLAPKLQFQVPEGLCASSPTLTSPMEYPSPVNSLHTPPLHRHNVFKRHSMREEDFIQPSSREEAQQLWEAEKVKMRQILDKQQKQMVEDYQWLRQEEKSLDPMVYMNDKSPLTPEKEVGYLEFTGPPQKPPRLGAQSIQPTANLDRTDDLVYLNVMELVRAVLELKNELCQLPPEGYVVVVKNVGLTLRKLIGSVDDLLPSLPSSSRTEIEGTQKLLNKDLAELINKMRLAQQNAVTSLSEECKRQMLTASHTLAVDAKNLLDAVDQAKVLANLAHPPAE

As to “CrkII (MCF-10A cells) (from UniProt P46108-1 1-304) (natural protein)”, the association relative to WT PEAK3 (control) in assay [1] is 40 % of control.

Regarding “PYK2 (MCF-10A cells) (from UniProt Q14289 1-1009) (natural protein)”, the recruitment relative to WT PEAK3 in assay [2] amounted to 50%.

Source of the values: paper doi:10.1101/2021.02.17.431740.
